# Experiment: soluble fraction after stress (log2 fold change); higher = more stays soluble; pooled small domains, quantitative proteomics
# Settings: stress: pH 4
# In short: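 Aggregation propensity is estimated from the fold change in each domain's soluble amount after acid stress. Pooled small-domain libraries were stressed at pH 4, and higher log2 values mean more stayed soluble.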
row,Sequence,soluble fraction (log2)
1,HMIMTIYEYIARNNPTGAKRVIESFGYVVTQPKKMGDNLRMLVAQEGEPALKAVVDLHPDKDLILEV,-1.93
2,HMQISDDGFILKIINEVVAENPKSISDYISGKEAAVGFLVGQIMKKTRGKANPKLVNEMLITELAKLKN,-0.393
3,HMADGDIIPEGQRDATLASLAGSMRARGMTEAEILAALQVTNETRVRPPMALADLERIARSIGRYEPGK,0.0649
4,HMRLPQEVWEKIRAAYEAHGLSFSELAEMYGVNKSNISRRAKAEGWNQAETQRLITATVENE,0.211
5,HMTKLTTDERSVYLHIQNKPGVSASSIREALGYKKSKLTSILAQLLEVHKIIDTEGTGKSLKYIL,0.091
6,HMSYPEIFQSLTEREQKIADMIAEHLSNKEIAEKMFLSEGTIKQYINQIYSKLQITGDIRNKRKQLIELFH,-0.0222
7,HMHFIMEYRIRAYVDELFESAPRTQRAYELKIELTQNLIDKYYALVSEGKSEQDAYNLTVMSIGDVREL,-0.959
8,HMQNSYSVEDLALKAGLSVDTIRYYQGLDLIAPPQKNGRRAIYGDEHLSRLDEIKKLALEGFSLRQISLLK,-1.02
9,HMVLANLQAAEQGDLGIKEGEKLTILQTRPDGWWTARNANGETGLVPK,0.0851
10,HMKSISMANGNVQLRINGVLASSLEVAALSPEDIKRVEYHDNPGLRYGEGIDIVLDYITIKRT,-1.16
11,HMGKKGPELSENEKSIFSILSKSGSMDLTTLKEASGLSNKQWDKGIKGLGKHGLTKVIKTEDALLVEVV,0.0105
12,HMGIAERKEKQKLEIRNAILEASRKLIVEEGFEKVTMRKIADLIEYSPTTVYLYFKDKNEILFHLHQ,-0.798
13,HMPLDYNELRSISPKAARQAILQILAANKGNVSATAKLLGVSRKTVYKAMHKKASGNLDDTSRAPK,0.13
14,HMTISGSDLKAQREALNIPLERIAKETRIRLSILQDLEDEEYSELSSSAQTKGFLRLYADYLSSHKQRLG,0.0379
15,HMSPVKAPLPGVVLDIHVSVGQEVKASDTVVTLEAMKMENAIKAGVDGKVASISVGKGDSVLEGAVLLTI,0.322
16,HMPVPSPAEQTATQLANIERHTGITVDGWTRAIAEAGAAKHGEIVAWLKQQGLTHGNANALAHAVRARQSG,0.173
17,HMTPYEVLVYESLKQKILSGGYAAGEKIPEQSVSEELGVSRSPLRSAIRRLASEGLIEYYPYRGAFVKA,-0.751
18,HMVTTTEAAKMLLVNAGHDVIKDGLTGASWASNTMKLADADGLLASVATKPNDALPRQYAAQMIYN,0.265
19,HMVQMKIRAYELEPNDFFIKQNMTYRVMRIQNGMIYAKHLLNSTPITFGAKSMEFVLWTGKYS,-1.05
20,HMEDADERRALEVLNQLLDLPEREQEAALAALSLPPALARRVRSLLSVQTRAADLFDTAPSP,-0.6
21,HMENNIILNYVKDNLNITEKDAKDLIELLGSDYYHIKNETNKIAAFLDGQPYSFEKIKNLISIDKEY,-0.644
22,HMTIATLGERIRKLRKERGLTLAELAGDKLSKGMLSLIENNRAKPSMESLEYIAKRLGVEPAELLE,0.297
23,HMTTQIPEEVQKRVNQFYEALDEEDYGEAKQILEELEKATAPDHPTLIQMRTRYEFDTMELR,-1.1
24,HMFPELSEEEQIIVSLLQKQPDGLQINTLVVESNIPVNRMSGILFELEMKGIIRMAAGGVYRLL,-0.785
25,HMVGPAHIGLAVAKDQLPHWERHLTANGVEIEGRMRWDHGGESIYFRDPDAHLLELVTPGIWAN,-0.1
26,HMTNTYEVIKNDIIFGVLPPLKKLKLLELKKKYITSVSTLREILSRLSGDGFVVSKEQKGFYVSAV,-0.22

row,Sequence,soluble fraction (log2)
1,HMPRNEIQRSVLNELVQWIKNNLAKKLTMQALSRFSGYSEWHLFRLFRHYFNMSPMAYIRQQRMQ,-0.359
2,HMTDLQNDIQAFNLKKMSYQHETKKLEEKRNPEKLEKLEQDIQALYLRIMENPNMRAFDSAKQALYLQIM,-1.55
3,HMIYWGTMVDKIYEVLSLAGKPLSLMEIYQQVKVFFPNSTKSSIEASMRLDARHRFKYDVEGHVYSLVD,-0.368
4,HMVVPSNPDELKGSFSLAEVASGYGLEVAAILEKAGWPADTDPNVKMRDAANAIGRDSTDIRNAVKALLKS,-0.468
5,HMQVSDEGAIQLLVQKAIEENPQAIEAFRGGKTSALGPVVGWVMKQSKGAANPTMVKTLLEKAI,0.378
6,HMGKDIYLTSGWVEKFDELNEFSNSVDNYDRLNQFGMYENAIIGDTGVIKITDEMIFDLYEKIQVPVEAGP,-1.04
7,HMVPSTAVIFTELVSMRSEPATKSPVTHQLTKGTAITINEEKDGWYQVTDQTGNSGWIVKWAVKPTYFTNP,0.31
8,HMKKDDLKQINGIGTTIEKKLNEIDIYNFYQISNLSKEDIETISEKIKTFPGKIERDNWVGQAQELL,-0.844
9,HMKTVPNVEGEKDGTAQSAIESAGLKVGKVTYQYDDNTSKGLVISQSVKGGEKVKPNTAIDLVVSNGPK,0.22
10,HMKYKWLAGQLRRELLENGGKKGYKLPTELELARRYQLSRQTVRRALQLLEEEGLILRRQGSGAYATGKPP,0.0629
11,HMTSESWAEKSRSLAAAGLIVMGRDAQLKIEGLTNLDPLIEAATASSTRLLTGQTIDELLTIVP,-0.627
12,HMADEIQIGLQKAIQSLPEKQKLVFSMRYYDEIPYDEMSKILDMSVGTLKTNYHYAKQKIEDFLQNH,-0.0771
13,HMAKDDFMSFVKAVWPEFIEGAHHRVIAQKFNDLATGKITRLIVNMPPRHTKSEFASYLLPAW,-0.144
14,HMNPETIHNDYKAFIKFAFSGLSYYSKVWNQNREMITPGLLETLWQKYRHLSIGEIETILEKIIKEG,-1.24
15,HMIVEIVPSALHGERVDRIVAFILDVSRSVASGLVERGAVHVDGSVETSGKVRLVEGQEVSVDPSQVPG,-0.528
16,HMGVSVNVQPAILDWAMQKAQMGNAGSSVIEMIAKWISGEKAPTFNQIEDVSKKISIPFGFFFLKEPPIE,-1.21
17,HMSPSDLSAEAQKVYALLDGRELSFDTLVEESGFDTGSLLAILMRLEMKMLVEHGADQVYRRSG,-0.98
18,HMVINVKEILERIKLVKGFHTQIEIARFLGVSKGTISNWLARNSVDFPLVISKLDGVDLNWLFTGIGMPQ,-0.433
19,HMSESAGKALDILFYLARVEDEVSLARLSKETGMNKATALRYLAVLESWGVVEKRPSGWSLGLSLFELGSK,-1.03
20,HMQFLKPQDVLFLLKLVVLKGPASIFPAVPESLGLSKAEVHNSAKRVRGARLLPHDSWNPLRKNLLEFL,0.0341
21,HMESDRVAHVVAPGETLFSISGKYGIGMGELVAANPVLESRPPRTGDTLLIRLPENPLPAETDAETLS,-0.858
22,HMETWDQAYETIKQNILNLTYPPGMPLTEAKLAEELGMSRSPVRTALRMLQTDGLIVTDYYKSMTVKEI,-2.07
23,HMGDAATVFRDHYNINSAAQAQAALDRKEALWEQPNPWRDSDNREVFDWAAQTVKDRFDSGKYKPK,-0.107
24,HMQTTITITNTVTGQKAQFPPPFNPMSLSKIGVDETFEKEVFVDGVDTFGYGLDGYLTFYELKDFLRSYQ,-2
25,HMADRDKYIIMGQQLLRAAFEHFGKKATDKALENAANKLRISDVPELYARLGSAELQPRDVINVIFPD,-0.0521
26,HMNQIFAPMPGLVLEVKLSEGDVVAEGESAIILEAMKMENIIKSPINGIVKKVHVKKGQTIEKNTLIISFK,-1.06

row,Sequence,soluble fraction (log2)
1,HMTAVVPNFKGKLISELSNFVADKNVRYTIIDSIYDPEEKSGIVIKQDPEEKTQVKHNRIIYLYVTST,-1.11
2,HMDDDIKNALDVLPEQYRMTVYYADVEGLAYKEIGAIMNTPIGTVMSRIHRGRSQLRVLLAAVAADR,-0.0958
3,HMNTKLKPLYLLDIFREMTDERHRMTVPELLEELQRRGITAERKGIYRDIDALIQYGADIKHTGTGYYLAR,0.18
4,HMIEINNLEDLKLMKEFILKNGKYGFGVFVGGKYIGLSDIGSVNSFKDTLGLPVVSLGNDDFKRFTEAH,-0.653
5,HMIYMIDPNDEIAVKLDEIYQRYLNRTIDPEGLIFFYNQIRNAQMGYSDVEKRILESPEYVSIPK,-1.23
6,HMSEHLTLVVSDEDAGHRVDQFLVSRLAHMTRSQIQKLIKDGQVTIDTKLVRASTTVHTDNIVTIEFPPAV,0.314
7,HMKTTKDSVFEYIQKELMTNEEYKQGINTNVIAQHFGLQRSNISTILNELVKEDRLEKTNTRPVLYFLPQ,0.184
8,HMGNHRNMSAEEEAAILAPFKARAEAGELVEISEIAKAYQSAVDHPISRGQIYFVLHRHGWRKV,-0.638
9,HMNIEEQVVAEVLVKDFMKQLTPRDIHILELRKNGYTYQEIAGQLGYHTHSAVKKRVDRLAEQWLAYTQGH,-0.739
10,HMRPKVADIDYFDGKTFTIEDGSKHSITTSEAKKIYFYLVKNGYVDDESHVTDAYRSAATSGTLA,-0.0612
11,HMKVLNVLESEIVRLFKQGQQKDNIRDNIYKTHGQHYNNKKSFNVVFGRKWNSLLEQGFLES,0.241
12,HMAPEVTVHDGSIVVRGHVGGVTVYDESGRQIASVQSRGAVAIPVPAGHTYLYIVKPEGKPAIKVRAAH,-0.0212
13,HMSQYVPDPVLNAALVGYLDFRKQAGKPMTDYSIRLLLVDLAKLSGNPQEQAAILDQSTKNNWIGVYALG,-0.326
14,HMVTIEEMMDRLLTRVQRAVNMSFSEFSGEAKEKVEVIVSFLALLELVKQGAVDVLQHENFSDIRIENT,-0.841
15,HMGTPKMPLSLYLSMVENLRSLKRFALVNQQVKDGFVFFNDVAGIKRLQELLNYHNTGEKPSE,-0.287
16,HMRKRLLQLVHIGKSQLGMDDETYRSLLSQQFYQNSAKNISYSELVKLVKILQQKGAKIRLPH,0.262
17,HMSLTPSQDANRSAILDAARDLFARYGFKKTTMEDIAMALRKGKSSLYYYFKNKEDIFQAVIDS,-0.0869
18,HMVAGHLQTKKGYYYIVLNMRTDTGARKTKWIATGIPEGGKKNLKQAEELLAKTRYTYEDMVI,0.0939
19,HMRSVTLQTDREGDILYVDGKQIGVSPQRLELSYGVHTIRAERGEQHTEKELEVTETGGETVVTLGFG,-0.0908
20,HMYYHQIIGLDVVDENGNTLGKIKEILSPGANDVWVVKRKQKNDLLLPVIDDVIKDVDLAAGKVHVELLEG,-1.38
21,HMILKQTHIVQELTGPIRLQEYGVGIFQQISTKSALKKALKKNQITVDGVVGSTATFIKGGEIIIYHVTE,-1.68
22,HMNILVAISDTGEIWINKRRVDARAVQANIERLHAENPQGTVVIQADKQATTETLIKVMDASRAAGVFDVS,-0.759
23,HMVSSEGLASGIERMLVEFGLETDKGRRFAMWSLLYMLGSAPDLDVAFKDPRDREAARTFMDLLDQANA,-0.99
24,HMRAVPSIAFVTQKLIEQGVTMEQLVRSLLLDHEEYENDDSLERTADELFGKARMIISNYTPE,-1.04
